Common to all, as to assay: SEC
On the technique in general: Size exclusion chromatography separates by hydrodynamic size, large species first.

The target in assay [1] is human glycyl-tRNA synthetase (GlyRS) C157R, CMT mutant (human).
Assay [2] deals with human glycyl-tRNA synthetase (GlyRS) E71G, CMT mutant (human).
In assay [3] the target is human glycyl-tRNA synthetase (GlyRS) E279D, CMT mutant (human).
The target of assay [4] is human glycyl-tRNA synthetase (GlyRS) G240R, CMT mutant (human).
The target in assay [5] is human glycyl-tRNA synthetase (GlyRS) G526R, CMT mutant (human).
The target in assay [6] is human glycyl-tRNA synthetase (GlyRS) L129P, CMT mutant (human).
The target in assay [7] is human glycyl-tRNA synthetase (GlyRS), wild type (human).

The results in this text go back to paper PMC8856733.

The term stoichiometry N denotes a count of units in the complex or per binding partner.

In turn, “human glycyl-tRNA synthetase (GlyRS) C157R, CMT mutant (enzyme)” returned a stoichiometry N in assay [1] of 2.

Consider “human glycyl-tRNA synthetase (GlyRS) E71G, CMT mutant (enzyme)”, for which, in assay [2], the stoichiometry N was 2.

Substance “human glycyl-tRNA synthetase (GlyRS) E279D, CMT mutant (enzyme)” came in with a stoichiometry N in assay [3] of 2.

Take “human glycyl-tRNA synthetase (GlyRS) G240R, CMT mutant (enzyme)”: the stoichiometry N in assay [4] turned out to be 2.

In turn, “human glycyl-tRNA synthetase (GlyRS) G526R, CMT mutant (enzyme)” had a stoichiometry N in assay [5] of 2.

On to “human glycyl-tRNA synthetase (GlyRS) L129P, CMT mutant (enzyme)”, for which the stoichiometry N in assay [6] was 2.

With “human glycyl-tRNA synthetase (GlyRS), wild type (enzyme)”, the stoichiometry N in assay [7] is 2.
